The values that follow come from patent publication US20200199214A1 (Hoffmann-La Roche, published 2020).

By Kd is commonly meant the concentration at which binding is half-saturated. A high value points to weaker binding. Broadly, the koff is the rate constant with which the complex falls apart. A word on the kon: it is the rate constant with which the complex forms. One may read the t½ as the time in which the quantity being followed falls by half. Read a low t½ as rapid decline.

Assay [1] addresses T1, Human VEGF121-His (human, UniProt P15692-9 27-147).
T1 construct: not shown: His tag
T1 sequence (looked up): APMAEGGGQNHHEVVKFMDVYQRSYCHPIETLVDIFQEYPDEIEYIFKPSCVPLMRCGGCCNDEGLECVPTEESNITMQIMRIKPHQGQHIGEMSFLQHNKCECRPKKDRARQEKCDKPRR
As to the kind of experiment: SPR, VEGF121-His captured via anti-His antibody, Fab injected, single cycle kinetics, 1:1 Langmuir fit. The procedure: (§1) An anti-His capturing antibody (GE Healthcare 28995056) was immobilized to a Series S Sensor Chip C1 (GE Healthcare 29104990) using standard amine coupling chemistry resulting in a surface density of approximately 500 resonance units (RU). As running and dilution buffer, HBS-P+(10 mM HEPES, 150 mM NaCl pH 7.4, 0.05% Surfactant P20) was used. Human VEGF121-His was captured to the surface with resulting ligand densities of approximately 10 and 20 RU, respectively. A dilution series of the bispecific anti-VEGF/anti-IL-1beta Fab fragment (1.2-100 nM, 1:3 dilution) was successively injected for 90 s each, dissociation was monitored for 3600 s at a flow rate of 30 μl/min (single cycle kinetics). The surface was regenerated by injecting 10 mM Glycine pH 1.5 for 60 s. Bulk refractive index differences were corrected by subtracting blank injections and by subtracting the response obtained from the control flow cell without captured human VEGF121. Curve fitting was performed using the 1:1 Langmuir binding model within the Biacore evaluation software. To provide more robust fitting, the Multiple Rmax option was chosen for global fitting using both ligand densities.
(§2) Binding kinetics to VEGF and IL-1beta for the candidate antibodies were assessed as described in Example 3 using the indicated bispecific anti-VEGF/anti-IL-1beta Fab fragments (amino acid sequence as illustrated in Table 3). For comparison, antigen binding kinetics of prior art anti-VEGF/anti-IL-1beta antibody 0032, a full length IgG antibody, as disclosed in WO2016/075034 are depicted.
On the technique in general: Surface plasmon resonance follows binding to a sensor surface in real time, without labels.

Assay [2] deals with T2, human IL-1 beta (PeproTech 200-01B) (human, UniProt P01584 117-269).
T2 construct: As printed it covers only the N-terminal part of the precursor, so it was not used; also called huIL-1 beta; IL1β
As to the kind of experiment: SPR, Fab captured via anti-Fab antibody, human IL-1beta injected, 1:1 Langmuir fit. The procedure:
(§3) An anti-Fab capturing antibody (GE Healthcare 28958325) was immobilized to a Series S Sensor Chip C1 (GE Healthcare 29104990) using standard amine coupling chemistry resulting in a surface density of approximately 500 resonance units (RU). The bispecific anti-VEGF/anti-IL-1beta Fab fragment was captured to the surface with resulting capture levels of approximately 20 RU. A dilution series ranging from 0.74 to 60 nM (1:3 dilution) of either human IL-1 beta (PeproTech 200-01B) or cynomolgus IL-1 beta (Sino Biological 90010-CNAE) was injected for 90 s, dissociation was monitored for at least 600 s at a flow rate of 30 μl/min. The surface was regenerated by two consecutive injections of 10 mM Glycine pH 2.1 for 60 s each. Bulk refractive index differences were corrected by subtracting blank injections and by subtracting the response obtained from the control flow cell without captured bispecific anti-VEGF/anti-IL-1beta Fab fragment. Curve fitting was performed using the 1:1 Langmuir binding model within the Biacore evaluation software.
as §2

Assay [3] concerns the target T3, cynomolgus IL-1 beta (Sino Biological 90010-CNAE) (cynomolgus, UniProt P79182 117-268).
T3 sequence (looked up): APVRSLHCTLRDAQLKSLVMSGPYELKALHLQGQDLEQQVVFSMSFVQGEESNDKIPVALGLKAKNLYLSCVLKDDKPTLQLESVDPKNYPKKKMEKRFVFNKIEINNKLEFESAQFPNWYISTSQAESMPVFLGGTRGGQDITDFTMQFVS
Nature of the assay: SPR, Fab captured via anti-Fab antibody, cynomolgus IL-1beta injected, 1:1 Langmuir fit. The protocol:
as §3, §2

Assay [4] has as its target T2, human IL-1 beta (PeproTech 200-01B). As to the kind of experiment: SPR, Fab captured via anti-Fab antibody, human IL-1beta injected, 1:1 Langmuir fit; n = 4. The procedure:
as §3
Binding kinetics to VEGF and IL-1beta for the candidate antibodies were assessed as described in Example 3 using the indicated bispecific anti-VEGF/anti-IL-1beta Fab fragments (amino acid sequence as illustrated in Table 3). […]

The next assay has as its target T4, human VEGF121 (human, UniProt P15692-9 27-147).
T4 construct: No tag is stated for these preparations; Kept apart from VEGF121-His; also called HuVEGF121
T4 sequence (looked up): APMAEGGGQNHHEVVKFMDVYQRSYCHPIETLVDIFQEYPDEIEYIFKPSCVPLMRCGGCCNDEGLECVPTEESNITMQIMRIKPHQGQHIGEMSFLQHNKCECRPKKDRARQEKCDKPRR
As to the kind of experiment: competition ELISA: Fab preincubated with VEGF121, free VEGF121 bound to coated rhVEGFR-1-Fc detected; sheet title 'Competition ELISA VEGFR1-Fc, 8 pM VEGF121'. The protocol:
(§4) 96-well-Plates (Maxisorp Nunc-Immoplates) were coated with 50 μL/well rhVEGFR-1-Fc (R&D #321-FL-050) at a final concentration of 1 μg/ml in 200 mM NaHC0₃, pH 9.4 for 1 hour at room temperature.
(§5) Meanwhile, antibody Fab fragments of different concentrations were preincubated with VEGF for form an antibody Fab-VEGF premix as follows: A dilution series of antibody Fab fragment was prepared by adding 280 μl of a solution of antibody Fab fragments (409.6 nM antibody in PBST-1% BSA) into the wells of the first column of a round bottom 96-well PS plate. The individual wells of columns 2-12 of the same plate were filled with 140 μl PBST-1% BSA. Subsequently, 1:2 dilutions were performed by transferring 140 μl of the antibody solution into the next column, thorough mixing and proceed with transferring 140 μl of this diluted antibody solution to the next column. This is repeated until column 11. Excess of 140 μl were discarded so that all wells comprise 140 μl. Column 12 served as the control (blank). […] 50 μl of the dilution series of the respective antibody Fab fragment were added to the VEGF121, or VEGF165, respectively; mixed thoroughly and incubated for 1.5 hours at room temperature.
(§6) The rhVEGFR-1-Fc coated plates were washed two times with PBST and blocked for 45 min with 200 μl of 2% MPBST. After washing off the MPBST solution twice with PBST, 50 μl of the antibody Fab-VEGF premix were added to the plate and incubated for 1.5 hours at room temperature. Subsequently, the plates were washed twice with PBST. Then, 50 μl of a solution comprising biotinylated anti-VEGF antibody (R&D, BAF293; 1:2000 dilution in PBST) and SA-HRP (KPL, 14-30-00; 1:2000 dilution in PBST) was added and incubated for 30 min at room temperature. After 6× washing with PBST, 50 μl of TMB substrate solution (two-component HRP substrate (KPL, 34021); used at room temperature) was added and incubated for 30 min at room temperature. 50 μl of 1N H₂SO₄ was added and absorbance was read at 450 nm.
In general terms: In an ELISA, binding on a coated surface is turned into a signal by an enzyme label.

In assay [5] the target is T1, Human VEGF121-His. Nature of the assay: SPR, VEGF121-His captured via anti-His antibody, Fab injected, single cycle kinetics, 1:1 Langmuir fit (same values as Table 1). The procedure: as §1, §2
Another assay deals with T5, VEGF165 (UniProt P15692-4 27-191).
T5 construct: also called VEGF165 (Humanzyme, HZ-1153)
As to the kind of experiment: competition ELISA: Fab preincubated with VEGF165, free VEGF165 bound to coated rhVEGFR-1-Fc detected; sheet title 'Competition ELISA VEGFR1-Fc, 8 pM VEGF165'. The procedure:
as §4, §5, §6

Assay [6] has as its target T2, human IL-1 beta (PeproTech 200-01B). As to the kind of experiment: SPR, Fab captured via anti-Fab antibody, IL-1beta injected 0.74-60 nM, 1:1 Langmuir fit. The procedure:
as §3, §2

Assay [7] has the same target. As to the kind of experiment: SPR, Fab captured via anti-Fab antibody, human IL-1beta injected, 1:1 Langmuir fit (same values as Table 1). The procedure:
as §3, §2

Assay [8] addresses T1, Human VEGF121-His. Nature of the assay: SPR, VEGF121-His captured via anti-His antibody, Fab injected 1.2-100 nM, single cycle kinetics, 1:1 Langmuir fit. The procedure:
as §1, §2

B1: bispecific anti-VEGF/anti-IL-1beta Fab fragment 1HVL5.15 (Fab, V domains shown)
VH: DETLVESGGGLVKPGGSLRLSCAAEGMVFKWNDMSWVRQAPGKGLEWVGSISKKGDHKYLNTKFIGRFTISRDNEKDTLYLQMNSLRAEDTAVYYCAKDVGFFDIWGQGTLVTVSS
VL: AIYMHQEPSSLSASVGDRVTITCHGSYWLSSLMAWYQQKPGKAPKLLIYDAKYKHLGVPSRFSGSGSHEDYTLTISSLQPEDFATYYCQQYRYHPYTFGHGTKVEIKR
As to B1, in the assay with Human VEGF121-His [1], binding was put at a Kd of 10 pM, the off-rate (koff) was found to be 1.47e-05 s⁻¹, the on-rate (kon) is 1.53e+06 M⁻¹ s⁻¹ and the t½ is 13.2 h. In assay [2], this molecule displayed a dissociation rate constant (koff) of 0.000107 s⁻¹ and a kon of 1.66e+06 M⁻¹ s⁻¹. In assay [3], this molecule registered a Kd of 45 pM, a koff of 0.000118 s⁻¹, a kon of 2.6e+06 M⁻¹ s⁻¹ and a t½ of 1.63 h. Further, in assay [4], the affinity, expressed as Kd, was 59 pM and the “t 1/2” value was determined as 1.82 h.

B2: bispecific anti-VEGF/anti-IL-1beta Fab fragment 1HVL2.3 (Fab, V domains shown)
VH: EQLVESGGGLVKPGGSLRLSCAASGMVFSWNAMSWVRQAPGKGLEWVGSISPKGDHKYLNTKFIGRFTISRDNSKNTLYLQMNSLRAEDTAVYYCAKDIGFFDVWGQGTLVTVSS
VL: AIYMHQEPSSLSASVGDRVTITCHGSYWLSNYLAWYQQKPGKAPKLLIYDASYRIIGVPSRFSGSGSHEDYTLTISSLQPEDFATYYCQQYRYHPYTFGHGTKVEIKR
notes: First expressed in E. coli TG1, later in HEK293
Turning to B2, the Kd in [3] is 5790 pM; in the assay with Human VEGF121-His [5] it was 8 pM; in assay [6] it was 4560 pM; in [7], 4560 pM; in the assay with Human VEGF121-His [8], 8 pM. In addition, the koff turned out to be 0.0182 s⁻¹ in assay [3]; 1.45e-05 s⁻¹ in the assay with Human VEGF121-His [5]; 0.0256 s⁻¹ in assay [6]; 0.0256 s⁻¹ in assay [7]; 1.45e-05 s⁻¹ in the assay with Human VEGF121-His [8]. In addition, the kon came to 3.14e+06 M⁻¹ s⁻¹ in assay [3]; 1.75e+06 M⁻¹ s⁻¹ with Human VEGF121-His [5]; 5.61e+06 M⁻¹ s⁻¹ in assay [6]; 5.61e+06 M⁻¹ s⁻¹ in assay [7]; 1.75e+06 M⁻¹ s⁻¹ in the assay with Human VEGF121-His [8]. For the same molecule, the t½ in assay [3] is 0.01 h; with Human VEGF121-His [5] it was 13.3 h. Further, the “IC50 (read off the curve)” value in the assay with human VEGF121 is roughly 80 pM; with VEGF165, roughly 200 pM. For the same molecule, the t 1/2 in assay [6] is 30 s; in [7], 30 s; with Human VEGF121-His [8], 13.3 h.

B3: bispecific anti-VEGF/anti-IL-1beta Fab fragment 1HVL12.85 (Fab, V domains shown)
VH: DEQLVESGGGLVKPGGSLRLSCAAEGMVFKWNDMSWVRQAPGKGLEWVGSISKKGDHKYLNTKFIGRFTISRDNEKDTLYLQMNSLRAEDTAVYYCAKDVGFFDIWGQGTLVTVSS
VL: AIYMHQEPSSLSASVGDRVTITCHGSYWLSSLVAWYQQKPGKAPKLLIYDAKYKHLGVPSRFSGSKEDQEFTLTISSLQPEDFATYYCQQYRYHPYTFGHGTKVEIKR
In the assay with Human VEGF121-His [1], B3 showed a Kd of 6 pM, a koff of 1.51e-05 s⁻¹, an on-rate constant (kon) of 2.5e+06 M⁻¹ s⁻¹ and a t½ of 12.7 h. Moreover, in assay [2], the affinity, expressed as Kd, was 28 pM; the dissociation rate constant (koff) came out at 0.000135 s⁻¹; the association rate constant (kon) came to 4.76e+06 M⁻¹ s⁻¹; the “t 1/2” value was 1.43 h. In assay [3], this molecule returned a Kd of 20 pM, a dissociation rate constant (koff) of 6.54e-05 s⁻¹, a kon of 3.34e+06 M⁻¹ s⁻¹ and a t½ of 2.95 h. Besides, the “IC50 (read off the curve)” value with human VEGF121 is roughly 40 pM. Further, the “IC50 (read off the curve)” value with VEGF165 was roughly 90 pM.
